Assay results: patent US20090142377

Columns and labels:
[1] = molecular target: CH5-1 (nH5 heat-cycled three times 25 to 85 C), H5 of A/Vietnam/1203/04
[2] = molecular target: CH5-2 (nH5 heat-cycled at pH 2, back to pH 7), H5 of A/Vietnam/1203/04
[3] = molecular target: CH5-3 (nH5 heat-cycled at pH 12, back to pH 7), H5 of A/Vietnam/1203/04
[4] = molecular target: CH5-4 (nH5 incubated with 100 mM glucose-6-phosphate for 67 h at 80 C), H5 of A/Vietnam/1203/04
[5] = molecular target: cFVIII-5: Helixate FVIII kept at 95 C for 5 minutes
[6] = molecular target: cross-beta FVIII-1 (cFVIII-1): Helixate FVIII kept at 4 C for 20 hours, stored at -80 C
Target sequence (chain, as listed by the source): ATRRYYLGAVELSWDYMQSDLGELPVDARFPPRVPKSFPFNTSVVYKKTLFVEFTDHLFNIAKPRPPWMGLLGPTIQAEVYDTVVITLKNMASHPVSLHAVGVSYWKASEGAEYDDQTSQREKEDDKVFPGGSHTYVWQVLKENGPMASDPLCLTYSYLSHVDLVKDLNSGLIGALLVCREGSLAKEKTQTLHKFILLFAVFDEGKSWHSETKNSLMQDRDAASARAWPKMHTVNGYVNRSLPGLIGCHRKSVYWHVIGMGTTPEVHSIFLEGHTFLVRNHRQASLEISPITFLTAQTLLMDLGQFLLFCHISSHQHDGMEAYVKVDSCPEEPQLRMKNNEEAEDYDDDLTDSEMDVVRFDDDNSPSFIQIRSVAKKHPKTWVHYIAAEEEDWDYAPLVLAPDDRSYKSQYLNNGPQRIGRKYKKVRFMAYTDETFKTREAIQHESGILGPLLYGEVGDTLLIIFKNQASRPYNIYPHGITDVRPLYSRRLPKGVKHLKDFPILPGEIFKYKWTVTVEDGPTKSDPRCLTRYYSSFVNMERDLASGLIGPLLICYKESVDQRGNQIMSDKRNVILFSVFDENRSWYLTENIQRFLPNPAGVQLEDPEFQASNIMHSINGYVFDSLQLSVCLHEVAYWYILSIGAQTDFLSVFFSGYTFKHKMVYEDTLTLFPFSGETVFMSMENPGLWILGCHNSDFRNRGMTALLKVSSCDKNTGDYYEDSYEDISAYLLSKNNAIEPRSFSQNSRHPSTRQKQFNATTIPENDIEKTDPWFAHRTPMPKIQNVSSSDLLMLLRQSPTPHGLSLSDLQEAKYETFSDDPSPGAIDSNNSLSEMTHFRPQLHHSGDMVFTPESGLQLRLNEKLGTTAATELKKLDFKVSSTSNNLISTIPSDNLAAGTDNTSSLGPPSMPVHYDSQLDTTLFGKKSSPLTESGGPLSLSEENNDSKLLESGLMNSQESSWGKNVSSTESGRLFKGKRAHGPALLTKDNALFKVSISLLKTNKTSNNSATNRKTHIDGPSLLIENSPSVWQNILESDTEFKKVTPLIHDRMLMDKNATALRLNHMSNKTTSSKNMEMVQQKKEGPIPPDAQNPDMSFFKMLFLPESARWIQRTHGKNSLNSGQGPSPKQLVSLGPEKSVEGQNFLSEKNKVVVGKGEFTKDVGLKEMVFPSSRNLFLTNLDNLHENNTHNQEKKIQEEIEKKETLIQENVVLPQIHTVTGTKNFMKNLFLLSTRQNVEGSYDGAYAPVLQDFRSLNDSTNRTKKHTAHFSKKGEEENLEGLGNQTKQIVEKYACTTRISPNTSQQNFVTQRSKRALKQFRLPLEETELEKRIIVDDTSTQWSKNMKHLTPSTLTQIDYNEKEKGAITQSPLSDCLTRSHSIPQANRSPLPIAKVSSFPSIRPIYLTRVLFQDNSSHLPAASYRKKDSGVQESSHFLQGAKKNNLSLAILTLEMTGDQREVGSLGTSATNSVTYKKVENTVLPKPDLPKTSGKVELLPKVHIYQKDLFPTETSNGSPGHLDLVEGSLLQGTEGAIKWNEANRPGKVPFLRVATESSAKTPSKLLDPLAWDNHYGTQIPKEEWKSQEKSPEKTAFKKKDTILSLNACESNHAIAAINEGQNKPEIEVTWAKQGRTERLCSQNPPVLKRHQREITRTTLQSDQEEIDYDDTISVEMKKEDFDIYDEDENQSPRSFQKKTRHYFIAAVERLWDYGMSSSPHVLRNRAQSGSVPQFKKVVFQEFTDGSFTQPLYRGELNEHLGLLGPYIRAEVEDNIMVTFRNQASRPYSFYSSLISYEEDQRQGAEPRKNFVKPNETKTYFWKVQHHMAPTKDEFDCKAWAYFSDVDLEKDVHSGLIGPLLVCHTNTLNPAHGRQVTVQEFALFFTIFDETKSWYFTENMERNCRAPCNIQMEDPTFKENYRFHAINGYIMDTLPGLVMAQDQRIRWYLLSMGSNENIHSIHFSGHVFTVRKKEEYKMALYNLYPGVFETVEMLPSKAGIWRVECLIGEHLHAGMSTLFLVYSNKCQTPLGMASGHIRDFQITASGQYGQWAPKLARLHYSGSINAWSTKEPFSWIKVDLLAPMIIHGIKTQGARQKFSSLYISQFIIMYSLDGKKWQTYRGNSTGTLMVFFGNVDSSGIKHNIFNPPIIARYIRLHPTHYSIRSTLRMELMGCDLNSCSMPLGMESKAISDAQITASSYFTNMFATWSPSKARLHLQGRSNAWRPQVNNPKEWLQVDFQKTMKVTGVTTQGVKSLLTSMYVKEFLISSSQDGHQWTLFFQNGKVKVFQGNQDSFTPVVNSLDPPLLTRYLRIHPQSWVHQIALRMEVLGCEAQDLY

[7] = molecular target: cross-beta factor VIII form 12: Helixate FVIII incubated for 1 week at 37 C, stored at 4 C, P00451
[8] = molecular target: T1, cross-beta nOVA: ovalbumin (chicken egg-white albumin) dissolved at 1 mg/ml in PBS, P01012
T1 chain: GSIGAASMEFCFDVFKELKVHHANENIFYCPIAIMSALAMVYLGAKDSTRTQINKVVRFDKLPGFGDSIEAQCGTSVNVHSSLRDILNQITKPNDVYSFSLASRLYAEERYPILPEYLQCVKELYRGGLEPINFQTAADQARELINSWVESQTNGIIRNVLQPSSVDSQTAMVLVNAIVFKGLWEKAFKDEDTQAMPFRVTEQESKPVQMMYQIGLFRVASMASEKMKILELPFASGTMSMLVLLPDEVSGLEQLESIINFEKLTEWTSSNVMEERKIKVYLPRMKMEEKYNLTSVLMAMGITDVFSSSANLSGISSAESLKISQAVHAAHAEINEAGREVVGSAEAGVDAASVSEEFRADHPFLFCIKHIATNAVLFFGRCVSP

[9] = molecular target: T2, dOVA-1: ovalbumin 5.2 mg/ml in HBS, acidified with HCl, 40 minutes at 37 C, neutralized, P01012
T2 chain: T1 chain

[10] = molecular target: T3, dOVA-2: ovalbumin 1 mg/ml in PBS, five heat cycles 30 to 85 C, P01012
T3 chain: T1 chain

[11] = molecular target: T4, dOVA-3: ovalbumin 1 mg/ml in PBS, about 16 h at 75 C, P01012
T4 chain: T1 chain

[12] = molecular target: non-treated H5 (nH5) of H5N1 strain A/Vietnam/1203/04 (Protein Sciences)

Chain of cross-beta factor VIII form 12: Helixate FVIII incubated for 1 week at 37 C, stored at 4 C, P00451 (P00451 whole entry, looked up): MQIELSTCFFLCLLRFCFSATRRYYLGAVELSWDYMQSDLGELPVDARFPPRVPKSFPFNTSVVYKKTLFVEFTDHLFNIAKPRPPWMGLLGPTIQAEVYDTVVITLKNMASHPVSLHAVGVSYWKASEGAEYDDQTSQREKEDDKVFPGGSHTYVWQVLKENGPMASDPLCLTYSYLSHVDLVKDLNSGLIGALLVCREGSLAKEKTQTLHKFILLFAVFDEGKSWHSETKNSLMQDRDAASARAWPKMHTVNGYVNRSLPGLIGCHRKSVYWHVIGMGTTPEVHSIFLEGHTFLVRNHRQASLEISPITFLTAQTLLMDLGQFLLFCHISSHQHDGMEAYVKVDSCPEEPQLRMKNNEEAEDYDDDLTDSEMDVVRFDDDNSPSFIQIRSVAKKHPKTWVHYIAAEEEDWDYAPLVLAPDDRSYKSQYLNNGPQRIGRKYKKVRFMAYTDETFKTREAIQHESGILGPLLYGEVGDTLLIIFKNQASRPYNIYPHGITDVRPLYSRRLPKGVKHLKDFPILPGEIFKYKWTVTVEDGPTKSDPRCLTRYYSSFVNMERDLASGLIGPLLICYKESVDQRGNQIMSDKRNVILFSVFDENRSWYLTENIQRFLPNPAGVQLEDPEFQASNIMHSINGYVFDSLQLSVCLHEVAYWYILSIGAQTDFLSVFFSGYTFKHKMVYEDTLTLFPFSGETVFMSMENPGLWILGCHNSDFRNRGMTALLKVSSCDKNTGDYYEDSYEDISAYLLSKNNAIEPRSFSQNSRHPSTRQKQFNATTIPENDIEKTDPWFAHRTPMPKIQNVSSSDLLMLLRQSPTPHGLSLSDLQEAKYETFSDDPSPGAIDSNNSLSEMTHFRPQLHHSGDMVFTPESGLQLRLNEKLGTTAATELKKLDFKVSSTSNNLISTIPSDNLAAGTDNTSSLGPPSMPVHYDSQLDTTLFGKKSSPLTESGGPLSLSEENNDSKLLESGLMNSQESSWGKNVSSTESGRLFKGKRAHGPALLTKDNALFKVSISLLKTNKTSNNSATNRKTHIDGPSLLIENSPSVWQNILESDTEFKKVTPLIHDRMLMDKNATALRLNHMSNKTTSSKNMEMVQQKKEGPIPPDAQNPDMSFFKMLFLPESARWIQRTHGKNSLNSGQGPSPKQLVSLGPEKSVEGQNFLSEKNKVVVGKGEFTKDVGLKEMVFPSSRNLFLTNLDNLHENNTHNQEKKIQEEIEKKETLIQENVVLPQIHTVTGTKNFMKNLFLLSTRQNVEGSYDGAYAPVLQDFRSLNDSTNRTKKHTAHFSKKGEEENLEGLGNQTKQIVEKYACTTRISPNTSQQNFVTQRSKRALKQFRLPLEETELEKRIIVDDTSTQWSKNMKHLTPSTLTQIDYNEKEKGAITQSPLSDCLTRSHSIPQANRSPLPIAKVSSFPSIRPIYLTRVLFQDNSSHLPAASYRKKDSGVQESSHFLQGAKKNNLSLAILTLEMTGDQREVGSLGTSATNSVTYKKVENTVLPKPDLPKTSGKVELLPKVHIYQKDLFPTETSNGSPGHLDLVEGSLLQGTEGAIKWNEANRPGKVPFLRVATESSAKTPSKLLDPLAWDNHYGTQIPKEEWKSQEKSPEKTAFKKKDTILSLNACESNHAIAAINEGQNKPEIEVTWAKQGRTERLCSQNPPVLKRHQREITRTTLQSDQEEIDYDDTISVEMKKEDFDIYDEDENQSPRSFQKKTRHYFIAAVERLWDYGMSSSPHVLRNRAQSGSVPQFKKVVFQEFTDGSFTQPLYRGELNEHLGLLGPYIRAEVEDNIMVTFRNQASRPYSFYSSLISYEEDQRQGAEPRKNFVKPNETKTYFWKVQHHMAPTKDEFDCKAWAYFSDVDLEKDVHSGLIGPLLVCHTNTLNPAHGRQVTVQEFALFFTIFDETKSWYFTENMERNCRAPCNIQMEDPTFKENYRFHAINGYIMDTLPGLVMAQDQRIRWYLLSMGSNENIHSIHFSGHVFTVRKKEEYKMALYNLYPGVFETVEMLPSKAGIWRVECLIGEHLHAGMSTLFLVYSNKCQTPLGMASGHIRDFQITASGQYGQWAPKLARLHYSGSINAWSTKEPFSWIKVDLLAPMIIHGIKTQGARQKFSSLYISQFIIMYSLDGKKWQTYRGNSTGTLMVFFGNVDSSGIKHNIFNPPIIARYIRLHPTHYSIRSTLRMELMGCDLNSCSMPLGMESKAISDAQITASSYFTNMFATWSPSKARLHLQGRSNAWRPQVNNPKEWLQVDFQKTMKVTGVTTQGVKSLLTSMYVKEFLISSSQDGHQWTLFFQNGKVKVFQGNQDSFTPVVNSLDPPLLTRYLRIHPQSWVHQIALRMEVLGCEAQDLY
Chain of cFVIII-5: Helixate FVIII kept at 95 C for 5 minutes (chain, as listed by the source): as the sequence (chain, as listed by the source) above

B1: tissue type plasminogen activator (tPA; Actilyse, Boehringer-Ingelheim) (protein)
chain: SYQVICRDEKTQMIYQQHQSWLRPVLRSNRVEYCWCNSGRAQCHSVPVKSCSEPRCFNGGTCQQALYFSDFVCQCPEGFAGKCCEIDTRATCYEDQGISYRGTWSTAESGAECTNWNSSALAQKPYSGRRPDAIRLGLGNHNYCRNPDRDSKPWCYVFKAGKYSSEFCSTPACSEGNSDCYFGNGSAYRGTHSLTESGASCLPWNSMILIGKVYTAQNPSAQALGLGKHNYCRNPDGDAKPWCHVLKNRRLTWEYCDVPSCSTCGLRQYSQPQFRIKGGLFADIASHPWQAAIFAKHRRSPGERFLCGGILISSCWILSAAHCFQERFPPHHLTVILGRTYRVVPGEEEQKFEVEKYIVHKEFDDDTYDNDIALLQLKSDSSRCAQESSVVRTVCLPPADLQLPDWTECELSGYGKHEALSPFYSERLKEAHVRLYPSSRCTSQHLLNRTVTDNMLCAGDTRSGGPQANLHDACQGDSGGPLVCLNDGRMTLVGIISWGLGCGQKDVPGVYTKVTNYLDWIRDNMRP
For B1, the “tPA mediated plasminogen activation assay” value [1] was “cH5-1 (50% of standard)”, the “tPA mediated plasminogen activation assay” value [2] was “cH5-2 (150% of standard)” and the “tPA mediated plasminogen activation assay” value [3] was “cH5-3 (200% of standard)”. For the same protein, the “tPA mediated plasminogen activation assay” value [4] was “cH5-4 (37% of standard)”, the “tPA/Plg activation assay, compared to a misfolded ovalbumin standard” value [5] was “cross-beta fVIII forms 1, 12 and 5 is approximately 50, 75 and 125%” and the “tPA/Plg activation assay, compared to a misfolded ovalbumin standard” value [6] was “cross-beta fVIII forms 1, 12 and 5 is approximately 50, 75 and 125%”. For the same protein, the “tPA/Plg activation assay, compared to a misfolded ovalbumin standard” value [7] was “cross-beta fVIII forms 1, 12 and 5 is approximately 50, 75 and 125%”, the tPA activation potency, activation at 10 ug/mL (% of reference) [8] was 48.8 and the tPA activation potency, activation at 25 ug/mL (% of reference) [8] was 48.1. For the same protein, the tPA activation potency, activation at 10 ug/mL (% of reference) [9] was 97.4, the tPA activation potency, activation at 25 ug/mL (% of reference) [9] was 136 and the tPA activation potency, activation at 10 ug/mL (% of reference) [10] was 107. For the same protein, the tPA activation potency, activation at 25 ug/mL (% of reference) [10] was 107, the tPA activation potency, reference dOVA-2 at 80 ug/mL (column 10 ug/mL) (% of reference) [10] was 100 and the tPA activation potency, reference dOVA-2 at 80 ug/mL (column 25 ug/mL) (% of reference) [10] was 100. The tPA activation potency, activation at 10 ug/mL (% of reference) [11] was 60.9, the tPA activation potency, activation at 25 ug/mL (% of reference) [11] was 79 and the “tPA mediated plasminogen activation assay” value [12] was “nH5 (140% of standard)”.
